The record followed here is US9889183B2, “PKC activators and anticoagulant in regimen for treating stroke” (BLANCHETTE ROCKEFELLER NEUROSCIENCES INSTITUTE, priority 2010, dated 2018).

The subject of this experiment is ischemic stroke (middle cerebral artery occlusion) in rats. Description: Focal ischemia (MCAO) model of stroke. The note with it: rTPA 6 hours after the stroke, without subsequent bryostatin; rats. It is filed as in vivo, rat. The procedure:
A transient animal model of focal ischemia was used for these experiments. The middle cerebral artery (MCA) was surgically dissected and occluded in anesthetized rats by ligature, followed by reperfusion after a defined period (about 2 hours). Animal models transient ischemia via occlusion of the MCA (MCAO) are well-known and described in, e.g., Sicard and Fisher, Exp. & Transl. Stroke Med. (2009), vol. 1, pp. 1-7.

B1: rTPA: recombinant tissue plasminogen activator, thrombolytic serine protease (protein, UniProt P00750 36-562, looked up)
Tissue-type plasminogen …: SYQVICRDEKTQMIYQQHQSWLRPVLRSNRVEYCWCNSGRAQCHSVPVKSCSEPRCFNGGTCQQALYFSDFVCQCPEGFAGKCCEIDTRATCYEDQGISYRGTWSTAESGAECTNWNSSALAQKPYSGRRPDAIRLGLGNHNYCRNPDRDSKPWCYVFKAGKYSSEFCSTPACSEGNSDCYFGNGSAYRGTHSLTESGASCLPWNSMILIGKVYTAQNPSAQALGLGKHNYCRNPDGDAKPWCHVLKNRRLTWEYCDVPSCSTCGLRQYSQPQFRIKGGLFADIASHPWQAAIFAKHRRSPGERFLCGGILISSCWILSAAHCFQERFPPHHLTVILGRTYRVVPGEEEQKFEVEKYIVHKEFDDDTYDNDIALLQLKSDSSRCAQESSVVRTVCLPPADLQLPDWTECELSGYGKHEALSPFYSERLKEAHVRLYPSSRCTSQHLLNRTVTDNMLCAGDTRSGGPQANLHDACQGDSGGPLVCLNDGRMTLVGIISWGLGCGQKDVPGVYTKVTNYLDWIRDNMRP
Usually mortality stands for the percentage killed. A high value points to fewer survivors. B1 had a mortality of 44%.
